B1: wild type (WT) human TRPA1 (Transient Receptor Potential Ankyrin subtype 1) (natural protein, UniProt O75762 1-1119, looked up)
chain: MKRSLRKMWRPGEKKEPQGVVYEDVPDDTEDFKESLKVVFEGSAYGLQNFNKQKKLKRCDDMDTFFLHYAAAEGQIELMEKITRDSSLEVLHEMDDYGNTPLHCAVEKNQIESVKFLLSRGANPNLRNFNMMAPLHIAVQGMNNEVMKVLLEHRTIDVNLEGENGNTAVIIACTTNNSEALQILLKKGAKPCKSNKWGCFPIHQAAFSGSKECMEIILRFGEEHGYSRQLHINFMNNGKATPLHLAVQNGDLEMIKMCLDNGAQIDPVEKGRCTAIHFAATQGATEIVKLMISSYSGSVDIVNTTDGCHETMLHRASLFDHHELADYLISVGADINKIDSEGRSPLILATASASWNIVNLLLSKGAQVDIKDNFGRNFLHLTVQQPYGLKNLRPEFMQMQQIKELVMDEDNDGCTPLHYACRQGGPGSVNNLLGFNVSIHSKSKDKKSPLHFAASYGRINTCQRLLQDISDTRLLNEGDLHGMTPLHLAAKNGHDKVVQLLLKKGALFLSDHNGWTALHHASMGGYTQTMKVILDTNLKCTDRLDEDGNTALHFAAREGHAKAVALLLSHNADIVLNKQQASFLHLALHNKRKEVVLTIIRSKRWDECLKIFSHNSPGNKCPITEMIEYLPECMKVLLDFCMLHSTEDKSCRDYYIEYNFKYLQCPLEFTKKTPTQDVIYEPLTALNAMVQNNRIELLNHPVCKEYLLMKWLAYGFRAHMMNLGSYCLGLIPMTILVVNIKPGMAFNSTGIINETSDHSEILDTTNSYLIKTCMILVFLSSIFGYCKEAGQIFQQKRNYFMDISNVLEWIIYTTGIIFVLPLFVEIPAHLQWQCGAIAVYFYWMNFLLYLQRFENCGIFIVMLEVILKTLLRSTVVFIFLLLAFGLSFYILLNLQDPFSSPLLSIIQTFSMMLGDINYRESFLEPYLRNELAHPVLSFAQLVSFTIFVPIVLMNLLIGLAVGDIAEVQKHASLKRIAMQVELHTSLEKKLPLWFLRKVDQKSTIVYPNKPRSGGMLFHIFCFLFCTGEIRQEIPNADKSLEMEILKQKYRLKDLTFLLEKQHELIKLIIQKMEIISETEDDDSHCSFQDRFKKEQMEQRNSRWNTVLRAVKAKTHHLEP
notes: human TRPA1, wild type, 1119 amino acids; Plasmid details are in the Supplementary Information; also called WT TRPA1; WT hTRPA1; source: HEK293T, transfected, in lysate (in intact cells for proximity biotinylation)

Key:
[1] = molecular target: B1; test: pull-down; FLAG-MBP-WT and Strep-MBP-R919* hTRPA1 co-transfected; lysates tandem purified for Strep- then FLAG-tagged proteins; eluates probed with anti-MBP antibody, band intensities normalised to WT; details: partners not purified
[2] = molecular target: the molecule itself; test: co-IP + SEC; GFP- and 3×FLAG-tagged subunits co-expressed in HEK293T cells; anti-FLAG immunoprecipitation, eluates analysed by fluorescence size exclusion chromatography (FSEC) of the GFP-tagged subunit; anti-FLAG blot of peak fractions

Row | stoichiometry N [1] | Binder | stoichiometry N [2]
1 | 1.3 R919* subunits per WT subunit | R919* human TRPA1 mutant (CRAMPT syndrome truncation) (domain or fragment, UniProt O75762 1-918, looked up, human TRPA1 with the patients' nonsense mutation at R919 (c.2755C>T); lacks the final 201 of 1119 amino acids (second pore helix, S6 and the whole cytoplasmic C-terminus); also called R919* TRPA1; R919* hTRPA1; source: HEK293T, transfected, in lysate (in intact cells for proximity biotinylation)) MKRSLRKMWRPGEKKEPQGVVYEDVPDDTEDFKESLKVVFEGSAYGLQNFNKQKKLKRCDDMDTFFLHYAAAEGQIELMEKITRDSSLEVLHEMDDYGNTPLHCAVEKNQIESVKFLLSRGANPNLRNFNMMAPLHIAVQGMNNEVMKVLLEHRTIDVNLEGENGNTAVIIACTTNNSEALQILLKKGAKPCKSNKWGCFPIHQAAFSGSKECMEIILRFGEEHGYSRQLHINFMNNGKATPLHLAVQNGDLEMIKMCLDNGAQIDPVEKGRCTAIHFAATQGATEIVKLMISSYSGSVDIVNTTDGCHETMLHRASLFDHHELADYLISVGADINKIDSEGRSPLILATASASWNIVNLLLSKGAQVDIKDNFGRNFLHLTVQQPYGLKNLRPEFMQMQQIKELVMDEDNDGCTPLHYACRQGGPGSVNNLLGFNVSIHSKSKDKKSPLHFAASYGRINTCQRLLQDISDTRLLNEGDLHGMTPLHLAAKNGHDKVVQLLLKKGALFLSDHNGWTALHHASMGGYTQTMKVILDTNLKCTDRLDEDGNTALHFAAREGHAKAVALLLSHNADIVLNKQQASFLHLALHNKRKEVVLTIIRSKRWDECLKIFSHNSPGNKCPITEMIEYLPECMKVLLDFCMLHSTEDKSCRDYYIEYNFKYLQCPLEFTKKTPTQDVIYEPLTALNAMVQNNRIELLNHPVCKEYLLMKWLAYGFRAHMMNLGSYCLGLIPMTILVVNIKPGMAFNSTGIINETSDHSEILDTTNSYLIKTCMILVFLSSIFGYCKEAGQIFQQKRNYFMDISNVLEWIIYTTGIIFVLPLFVEIPAHLQWQCGAIAVYFYWMNFLLYLQRFENCGIFIVMLEVILKTLLRSTVVFIFLLLAFGLSFYILLNLQDPFSSPLLSIIQTFSMMLGDINY | 
2 |  | B1 | 4
